Assay results reported in publication PMC11058771.

Biological target: mouse teneurin-3 A1B1 complete extracellular domain (ECD, residues 342-2715) (mouse) (UniProt Q9WTS6)
Experiment: SEC-MALS; purified ECD, 0.5 mg/mL in 20 mM HEPES pH 7.8, 150 mM NaCl, 2 mM CaCl2, Superose6 Increase 10/300 GL; also SDS-PAGE with or without beta-mercaptoethanol; covalent (disulphide-linked) dimer

## mouse teneurin-3 A1B1 complete extracellular domain (ECD, residues 342-2715), Q9WTS6-1 342-2715
  stoichiometry N: 2
